This test deals with Get1/2 heterodimer, cytosolically labeled (Get1-S77C-Cy5 and Get2-S28C-Cy3) (yeast) (UniProt P53192). Put plainly: FRET or BRET. On the technique in general: BRET reads energy transfer from a luciferase to a nearby fluorophore.

B1: Get3-D57N (enzyme)
chain: MDLTVEPNLHSLITSTTHKWIFVGGKGGVGKTTSSCSIAIQMALSQPNKQFLLISTNPAHNLSDAFGEKFGKDARKVTGMNNLSCMEIDPSAALKDMNDMAVSRANNNGSDGQGDDLGSLLQGGALADLTGSIPGIDEALSFMEVMKHIKRQEQGEGETFDTVIFDTAPTGHTLRFLQLPNTLSKLLEKFGEITNKLGPMLNSFMGAGNVDISGKLNELKANVETIRQQFTDPDLTTFVCVCISEFLSLYETERLIQELISYDMDVNSIIVNQLLFAENDQEHNCKRCQARWKMQKKYLDQIDELYEDFHVVKMPLCAGEIRGLNNLTKFSQFLNKEYNPITDGKVIYELEDKE
In the case of B1, the Kd is less than 1 nM and the stoichiometry N (Get3 homodimer per Get1/2 heterodimer) worked out at 1.

A word on the Kd: it is the constant that tells how readily two partners part at equilibrium. Higher therefore signals a looser complex.

For the origin of these results see publication PMC5657598.
